The text below walks through data of the Human Domainome abundance scans (Beltran et al. 2025).

± gives the uncertainty stated by the source.

The chains are these.
B1: GA-binding protein alpha chain, residues 172 to 250; numbered along this chain, Q06546 (parent)
chain: GYRKEQERLGIPYDPIQWSTDQVLHWVVWVMKEFSMTDIDLTTLNISGRELCSLNQEDFFQRVPRGEILWSHLELLRKY

In this data set the parent is B1. As to the kind of experiment: abundance fitness (aPCA) (normalised: wild type 0, dead -1); higher = more abundant; growth selection in yeast, the domain comes from the species named. The conditions noted are these: Homo sapiens.
In the case of GYRKEQERLGIPYDPIQWSTDQVLHWVVWVMKEFSMTDIDLTTLNISGRELCSLNQEDFFQCVPRGEILWSHLELLRKY, the abundance fitness is -0.143 ± 0.055.

As for GYRKEQERLGIPYDPIQWSTDQVLHWVVWVMKEFSMTDIDLTTLNISGRELCSLNQEDFYQRVPRGEILWSHLELLRKY, the abundance fitness is -0.06 ± 0.1.

Regarding GYRKEQERLGIPYDPIQWSTDQVLHWVVWVMKEFSMTDIDLTTLNISGRELCSLNQEDFTQRVPRGEILWSHLELLRKY, the abundance fitness is -0.044 ± 0.061.

Consider GYRKEQERLGIPYDPIQWSTDQVLHWVVWVMKEFSMTDIDLTTLNISGRELCSLNQEDFWQRVPRGEILWSHLELLRKY, for which the abundance fitness is -0.211 ± 0.051.

As for GYRKEQERLGIPYDPIQWSTDQVLHWVVWVMKEFSMTDIDLTTLNISGRELCSLNQEDFHQRVPRGEILWSHLELLRKY, the abundance fitness is -0.118 ± 0.13.

For the variant GYRKEQERLGIPYDPIQWSTDQVLHWVVWVMKEFSMTDIDLTTLNISGRELCSLNQEDFEQRVPRGEILWSHLELLRKY, the abundance fitness was -0.074 ± 0.097.

GYRKEQERLGIPYDPIQWSTDQVLHWVVWVMKEFSMTDIDLTTLNISGRELCSLNQEDFNQRVPRGEILWSHLELLRKY: the abundance fitness is -0.183 ± 0.17.

For GYRKEQERLGIPYDPIQWSTDQVLHWVVWVMKEFSMTDIDLTTLNISGRELCSLNQEDFLQRVPRGEILWSHLELLRKY, the abundance fitness worked out at 0.033 ± 0.042.

Consider GYRKEQERLGIPYDPIQWSTDQVLHWVVWVMKEFSMTDIDLTTLNISGRELCSLNQEDFGQRVPRGEILWSHLELLRKY, for which the abundance fitness was -0.101 ± 0.038.

GYRKEQERLGIPYDPIQWSTDQVLHWVVWVMKEFSMTDIDLTTLNISGRELCSLNQEDFRQRVPRGEILWSHLELLRKY: the abundance fitness stood at 0.003 ± 0.04.

Turning to GYRKEQERLGIPYDPIQWSTDQVLHWVVWVMKEFSMTDIDLTTLNISGRELCSLNQEDFVQRVPRGEILWSHLELLRKY, the abundance fitness came out at 0.049 ± 0.037.

Consider GYRKEQERLGIPYDPIQWSTDQVLHWVVWVMKEFSMTDIDLTTLNISGRELCSLNQEDFMQRVPRGEILWSHLELLRKY, for which the abundance fitness came out at 0.121 ± 0.1.

As for GYRKEQERLGIPYDPIQWSTDQVLHWVVWVMKEFSMTDIDLTTLNISGRELCSLNQEDFPQRVPRGEILWSHLELLRKY, the abundance fitness was -0.527 ± 0.062.

For GYRKEQERLGIPYDPIQWSTDQVLHWVVWVMKEFSMTDIDLTTLNISGRELCSLNQEDFIQRVPRGEILWSHLELLRKY, the abundance fitness was 0.039 ± 0.1.

Regarding GYRKEQERLGIPYDPIQWSTDQVLHWVVWVMKEFSMTDIDLTTLNISGRELCSLNQEDFAQRVPRGEILWSHLELLRKY, the abundance fitness is -0.03 ± 0.046.

Consider GYRKEQERLGIPYDPIQWSTDQVLHWVVWVMKEFSMTDIDLTTLNISGRELCSLNQEDFSQRVPRGEILWSHLELLRKY, for which the abundance fitness was 0 ± 0.051.

With GYRKEQERLGIPYDPIQWSTDQVLHWVVWVMKEFSMTDIDLTTLNISGRELCSLNQEDFQQRVPRGEILWSHLELLRKY, the abundance fitness is -0.053 ± 0.071.

For GYRKEQERLGIPYDPIQWSTDQVLHWVVWVMKEFSMTDIDLTTLNISGRELCSLNQEDFCQRVPRGEILWSHLELLRKY, the abundance fitness was -0.088 ± 0.11.

On to GYRKEQERLGIPYDPIQWSTDQVLHWVVWVMKEFSMTDIDLTTLNISGRELCSLNQEDFKQRVPRGEILWSHLELLRKY, for which the abundance fitness was -0.048 ± 0.092.

As to GYRKEQERLGIPYDPIQWSTDQVLHWVVWVMKEFSMTDIDLTTLNISGRELCSLNQEDHFQRVPRGEILWSHLELLRKY, the abundance fitness is -0.931 ± 0.23.

Consider GYRKEQERLGIPYDPIQWSTDQVLHWVVWVMKEFSMTDIDLTTLNISGRELCSLNQEDVFQRVPRGEILWSHLELLRKY, for which the abundance fitness was -0.803 ± 0.072.

In the case of GYRKEQERLGIPYDPIQWSTDQVLHWVVWVMKEFSMTDIDLTTLNISGRELCSLNQEDSFQRVPRGEILWSHLELLRKY, the abundance fitness is -0.626 ± 0.068.

With GYRKEQERLGIPYDPIQWSTDQVLHWVVWVMKEFSMTDIDLTTLNISGRELCSLNQEDIFQRVPRGEILWSHLELLRKY, the abundance fitness is -0.507 ± 0.12.

As to GYRKEQERLGIPYDPIQWSTDQVLHWVVWVMKEFSMTDIDLTTLNISGRELCSLNQEDCFQRVPRGEILWSHLELLRKY, the abundance fitness was -0.972 ± 0.3.

Consider GYRKEQERLGIPYDPIQWSTDQVLHWVVWVMKEFSMTDIDLTTLNISGRELCSLNQEDNFQRVPRGEILWSHLELLRKY, for which the abundance fitness is -0.74 ± 0.19.

As to GYRKEQERLGIPYDPIQWSTDQVLHWVVWVMKEFSMTDIDLTTLNISGRELCSLNQEDRFQRVPRGEILWSHLELLRKY, the abundance fitness was -0.552 ± 0.058.

Regarding GYRKEQERLGIPYDPIQWSTDQVLHWVVWVMKEFSMTDIDLTTLNISGRELCSLNQEDWFQRVPRGEILWSHLELLRKY, the abundance fitness is -0.263 ± 0.051.

Regarding GYRKEQERLGIPYDPIQWSTDQVLHWVVWVMKEFSMTDIDLTTLNISGRELCSLNQEDEFQRVPRGEILWSHLELLRKY, the abundance fitness was -0.954 ± 0.15.

In the case of GYRKEQERLGIPYDPIQWSTDQVLHWVVWVMKEFSMTDIDLTTLNISGRELCSLNQEDTFQRVPRGEILWSHLELLRKY, the abundance fitness is -1.02 ± 0.27.

For GYRKEQERLGIPYDPIQWSTDQVLHWVVWVMKEFSMTDIDLTTLNISGRELCSLNQEDAFQRVPRGEILWSHLELLRKY, the abundance fitness is -0.813 ± 0.082.

As to GYRKEQERLGIPYDPIQWSTDQVLHWVVWVMKEFSMTDIDLTTLNISGRELCSLNQEDYFQRVPRGEILWSHLELLRKY, the abundance fitness is -0.853 ± 0.13.

Turning to GYRKEQERLGIPYDPIQWSTDQVLHWVVWVMKEFSMTDIDLTTLNISGRELCSLNQEDLFQRVPRGEILWSHLELLRKY, the abundance fitness is -0.424 ± 0.041.

Consider GYRKEQERLGIPYDPIQWSTDQVLHWVVWVMKEFSMTDIDLTTLNISGRELCSLNQEDKFQRVPRGEILWSHLELLRKY, for which the abundance fitness was -0.815 ± 0.22.

Consider GYRKEQERLGIPYDPIQWSTDQVLHWVVWVMKEFSMTDIDLTTLNISGRELCSLNQEDGFQRVPRGEILWSHLELLRKY, for which the abundance fitness was -0.888 ± 0.063.

As for GYRKEQERLGIPYDPIQWSTDQVLHWVVWVMKEFSMTDIDLTTLNISGRELCSLNQEDPFQRVPRGEILWSHLELLRKY, the abundance fitness is -1.02 ± 0.17.
